Literature values as cited in publication PMC3139910.

Target: CCR7 (Homo sapiens) (UniProt P32248)
Chain of UniProt P32248 (P32248 25-378): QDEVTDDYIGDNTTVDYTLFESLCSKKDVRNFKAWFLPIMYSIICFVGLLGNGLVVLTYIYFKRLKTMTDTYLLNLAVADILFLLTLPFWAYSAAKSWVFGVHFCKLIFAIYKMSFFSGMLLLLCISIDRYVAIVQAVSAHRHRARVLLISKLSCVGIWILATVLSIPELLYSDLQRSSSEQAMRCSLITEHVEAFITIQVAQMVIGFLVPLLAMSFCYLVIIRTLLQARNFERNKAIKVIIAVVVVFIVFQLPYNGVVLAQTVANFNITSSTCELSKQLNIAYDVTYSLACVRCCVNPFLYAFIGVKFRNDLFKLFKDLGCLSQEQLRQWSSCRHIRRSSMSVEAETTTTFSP

Question: Which Kd does the source give for CCL21 (from UniProt O00585) here?
Answer: Its Kd is 5 nM.
